B1: TRAF3IP2 (parent)
chain: PRPPSNPPARGTLKTSNLPEELRK

Variants of: B1
Test: protein stability index of a GFP-peptide fusion (GPS, HEK-293T) (PSI 1-6); higher = more stable
Conditions: c terminus: a fixed tail appended
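Also: lentivirally expressed fusions sorted by FACS into six bins by GFP to DsRed ratio, PSI derived from sequencing read proportions per bin multiplied by bin number.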

| Variant | protein stability index |
| --- | --- |
| PRPPSNPPARGTLTTSNLPEELRK | 5.09 |
| PRPPSNPPARGELKTSNLPEELRK | 4.54 |
| PRPPSNPPARGDLKTSNLPEELRK | 4.88 |
| PRPPSNPPARGHLKTSNLPEELRK | 4.75 |
| PRPPSNPPARGNLKTSNLPEELRK | 4.42 |
| PRPPSNPPARGGLKTSNLPEELRK | 4 |
| PRPPSNPPARGLLKTSNLPEELRK | 4.65 |
| PRPPSNPPARGYLKTSNLPEELRK | 4.78 |
| PRPPSNPPARGVLKTSNLPEELRK | 4.41 |
| PRPPSNPPARGILKTSNLPEELRK | 4.54 |
| PRPPSNPPARGSLKTSNLPEELRK | 4.35 |
| PRPPSNPPARGQLKTSNLPEELRK | 4.52 |
| PRPPSNPPARGCLKTSNLPEELRK | 4.24 |
| PRPPSNPPARGRLKTSNLPEELRK | 4.58 |
| PRPPSNPPARGFLKTSNLPEELRK | 4.3 |
| PRPPSNPPARGALKTSNLPEELRK | 4.66 |
| PRPPSNPPARGWLKTSNLPEELRK | 3.65 |
| PRPPSNPPARGKLKTSNLPEELRK | 4.7 |
| PRPPSNPPARGMLKTSNLPEELRK | 4.56 |
| PRPPSNPPNRGTLKTSNLPEELRK | 4.95 |
| PRPPSNPPERGTLKTSNLPEELRK | 5.06 |
| PRPPSNPPHRGTLKTSNLPEELRK | 4.63 |
| PRPPSNPPMRGTLKTSNLPEELRK | 4.68 |
| PRPPSNPPYRGTLKTSNLPEELRK | 4.5 |

| Variant | protein stability index |
| --- | --- |
| PRPPSNPPKRGTLKTSNLPEELRK | 4.44 |
| PRPPSNPPCRGTLKTSNLPEELRK | 4.31 |
| PRPPSNPPGRGTLKTSNLPEELRK | 4.84 |
| PRPPSNPPFRGTLKTSNLPEELRK | 4.37 |
| PRPPSNPPIRGTLKTSNLPEELRK | 4.65 |
| PRPPSNPPLRGTLKTSNLPEELRK | 4.85 |
| PRPPSNPPQRGTLKTSNLPEELRK | 4.7 |
| PRPPSNPPVRGTLKTSNLPEELRK | 4.31 |
| PRPPSNPPSRGTLKTSNLPEELRK | 4.62 |
| PRPPSNPPDRGTLKTSNLPEELRK | 5 |
| PRPPSNPPTRGTLKTSNLPEELRK | 5.3 |
| PRPPSNPPWRGTLKTSNLPEELRK | 4.47 |
| PRPPSNPPRRGTLKTSNLPEELRK | 4.6 |
| PRPPSNPPARGTLKQSNLPEELRK | 4.48 |
| PRPPSNPPARGTLKISNLPEELRK | 4.14 |
| PRPPSNPPARGTLKFSNLPEELRK | 4.29 |
| PRPPSNPPARGTLKASNLPEELRK | 4.22 |
| PRPPSNPPARGTLKNSNLPEELRK | 4.53 |
| PRPPSNPPARGTLKMSNLPEELRK | 4.43 |
| PRPPSNPPARGTLKHSNLPEELRK | 4.99 |
| PRPPSNPPARGTLKCSNLPEELRK | 4.72 |
| PRPPSNPPARGTLKDSNLPEELRK | 5.13 |
| PRPPSNPPARGTLKGSNLPEELRK | 4.95 |
| PRPPSNPPARGTLKESNLPEELRK | 4.94 |

| Variant | protein stability index |
| --- | --- |
| PRPPSNPPARGTLKLSNLPEELRK | 4.29 |
| PRPPSNPPARGTLKPSNLPEELRK | 4.64 |
| PRPPSNPPARGTLKKSNLPEELRK | 4.82 |
| PRPYSNPPARGTLKTSNLPEELRK | 4.43 |
| PRPTSNPPARGTLKTSNLPEELRK | 3.97 |
| PRPRSNPPARGTLKTSNLPEELRK | 4.49 |
| PRPWSNPPARGTLKTSNLPEELRK | 4.61 |
| PRPSSNPPARGTLKTSNLPEELRK | 4.89 |
| PRPVSNPPARGTLKTSNLPEELRK | 4.53 |
| PRPPSCPPARGTLKTSNLPEELRK | 5.18 |
| PRPPSDPPARGTLKTSNLPEELRK | 4.8 |
| PRPPSFPPARGTLKTSNLPEELRK | 5.34 |
| PRPPSVPPARGTLKTSNLPEELRK | 4.79 |
| PRPPSKPPARGTLKTSNLPEELRK | 4.72 |
| PRPPSMPPARGTLKTSNLPEELRK | 5.31 |
| PRPPSQPPARGTLKTSNLPEELRK | 4.78 |
| PRPPSTPPARGTLKTSNLPEELRK | 4.69 |
| PRPPSGPPARGTLKTSNLPEELRK | 4.65 |
| PRPPSLPPARGTLKTSNLPEELRK | 5.01 |
| PRPPSSPPARGTLKTSNLPEELRK | 5.01 |
| PRPPSWPPARGTLKTSNLPEELRK | 5.83 |
| PRPPSIPPARGTLKTSNLPEELRK | 4.62 |
| PRPPSYPPARGTLKTSNLPEELRK | 4.99 |
| PRPPSEPPARGTLKTSNLPEELRK | 5.15 |

| Variant | protein stability index |
| --- | --- |
| PRPPSHPPARGTLKTSNLPEELRK | 5.21 |
| PRPPSAPPARGTLKTSNLPEELRK | 5.47 |
| PRPPSRPPARGTLKTSNLPEELRK | 4.49 |
| PRPPSNPRARGTLKTSNLPEELRK | 4.43 |
| PRPPSNPMARGTLKTSNLPEELRK | 4.76 |
| PRPPSNPTARGTLKTSNLPEELRK | 5.02 |
| PRPPSNPFARGTLKTSNLPEELRK | 4.43 |
| PRPPSNPKARGTLKTSNLPEELRK | 4.99 |
| PRPPSNPIARGTLKTSNLPEELRK | 4.72 |
| PRPPSNPCARGTLKTSNLPEELRK | 4.48 |
| PRPPSNPYARGTLKTSNLPEELRK | 4.69 |
| PRPPSNPDARGTLKTSNLPEELRK | 4.99 |
| PRPPSNPGARGTLKTSNLPEELRK | 4.82 |
| PRPPSNPEARGTLKTSNLPEELRK | 4.81 |
| PRPPSNPQARGTLKTSNLPEELRK | 5.09 |
| PRPPSNPWARGTLKTSNLPEELRK | 4.22 |
| PRPPSNPLARGTLKTSNLPEELRK | 4.69 |
| PRPPSNPAARGTLKTSNLPEELRK | 5.06 |
| PRPPSNPNARGTLKTSNLPEELRK | 4.82 |
| PRPPSNPSARGTLKTSNLPEELRK | 4.8 |
| PRPPSNPHARGTLKTSNLPEELRK | 3.56 |
| PRPPSNPVARGTLKTSNLPEELRK | 5.04 |

Reference: the supplement of paper PMC10567573
